Data taken from the supplement of paper PMC12042874.
± gives the uncertainty stated by the source.

Experiment: amyloid nucleation score (Sup35N fusion, yeast selection) (log enrichment); library NNK3; higher = more nucleation; inactive = no reads after selection
Outline: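 In psi-negative yeast, Sup35N fusions carrying peptides of 20 random codons were induced with 100 μM copper sulfate for 24 hours. The cells then grew 7 days at 30°C on medium lacking adenine and uracil, and plasmid inserts from input and output were Illumina-sequenced, excluding sequences with under 100 input reads. Nucleation score is the DiMSum log enrichment of output over input reads, centred on the mode score of non-aggregating sequences.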

Substance | amyloid nucleation score
PDDKLM | inactive
PDVDLTTMLNNNMNYMYVKI | inactive
PDVNVRGGGQLVV | inactive
PEGVSGIAE | inactive
PERWSMPYIPSDLYKCLLNQ | inactive
PFAST | inactive
PFGPHYNPTM | inactive
PFLPAANNCVKQRCCFSGAL | inactive
PFNPSYIFRLLYL | inactive
PFPGRTLKWNLYTSQFFMAG | inactive
PFPHKDQYHGGGKWPDE | inactive
PFSFKLPR | inactive
PFSRTERRFYK | -0.463 ± 1.7
PFWVTVYMDILLVKQQPLSV | inactive
PGFSLFLGLRSVWKHFFCFR | inactive
PGNNFKNAAESFRKAYMCRR | inactive
PGYGS | inactive
PHMSLKTFSDS | inactive
PHVLVESLW | inactive
PIFHGD | inactive
PIIHGCDDLRDFFIARICIS | inactive
PISLCSWATRFCSYFDKHKL | inactive
PITDNHFG | -0.697 ± 1.4
PIVEYVFTPMF | inactive

Substance | amyloid nucleation score
PIWTHFRGPCGVEAIRETRV | inactive
PKFYH | inactive
PKGEGIMISLFLDCTRLVNG | 2.11 ± 0.077
PKIAGFSGGTCTVA | inactive
PKQSIDCCHNWGDGNCFIVV | inactive
PKSFWVLSPIDLVIVVQVRQ | inactive
PKSLLVPIIRPMQVWRKFDL | inactive
PLCATFKDTNRNNTVYRSLF | inactive
PLCNCVNRENSDGMMWGYRE | inactive
PLDSECEKDGHDTPYDYVVL | inactive
PLEVLAKFFWDDWATHSMDL | inactive
PLEWNNGVYISGWLWVLVSW | -0.518 ± 0.63
PLFGRCHRWGVTMQYSLLIG | inactive
PLLFSRVSLDL | inactive
PLRLCNPLSGFVPLLFTAFR | inactive
PLSFIKRRFRRLAGLSRSSA | inactive
PLSMSHVGAGLKF | inactive
PLSPFYAAWDYMILCVG | inactive
PLVMGFIRVHCIFRRRFG | inactive
PLWHTWFGYAE | 0.494 ± 0.24
PNAEGFFSVSGFCVVLNQSM | 1.34 ± 0.087
PNHYSYQCALLKRSTEFRHA | inactive
PNHYWFVAQFWLFSLTACHR | 0.02 ± 0.77
PNRFNIIHVKFRFSFYATLT | inactive

Substance | amyloid nucleation score
PPLPRFSLSFGRWLFLICHE | inactive
PQDQDDVKVLSRGVRYVWGH | inactive
PRCISSPRSPSLNVWVLKSE | inactive
PRIWLVAFQTKTCYPSGGWL | -1.47 ± 1.9
PRPLGLFTSYDNGLGYRQGQ | inactive
PRPWRL | inactive
PRWLPVDGYEDSGVVEDKES | inactive
PRYAVALSLD | inactive
PSFFRKLFLPFASYLTMCGE | inactive
PSFLNSMGS | inactive
PSLQRSQRVSEFRTM | inactive
PSMKL | inactive
PSMSADGADLSGCQLIMVLS | inactive
PSTDSINDV | inactive
PSYEAASK | inactive
PTAVVVGYHSYVTFRAVKCV | inactive
PTEVYEATYCHFTNLL | inactive
PTFFTSVLGFNYRVLYRIAV | inactive
PTIQQDWIAFYIHSCEFLVL | inactive
PTIYRMFGVGQMVMN | inactive
PTLILWDFCCLVLVEAFYGC | inactive
PTNDAYVVVMD | inactive
PTTFNVFLGLWCVGTYCTWL | 0.997 ± 0.24
PVLSIYWTGPLKFNYIMMGL | inactive

Substance | amyloid nucleation score
PVNEFYYLFCKRVYPCALQI | 0.295 ± 0.53
PVRSPAACGDRLSVRVANME | inactive
PVTIFKETCWP | inactive
PVVRQRNALILCLSHMSCLE | 2.15 ± 0.063
PVWFTYQHHCWVKLICV | inactive
PWDDYTAQIGLYSFPPWLYV | inactive
PWDQDGGSTYSKGGPSNWEF | inactive
PYPESVFQWFEYIPFYCSVR | inactive
PYSISRLTSYDPFGHVPGTR | inactive
PYSLPSP | inactive
PYTWAMHLNLLITTDR | -0.032 ± 0.54
QALTFIMWETDTSHGTCLNG | 1.46 ± 0.07
QDPMLTCGGRWDFTCAGEVP | inactive
QEGWCWSYLVAGGWV | inactive
QELMEKDGRASKDQAWASIV | inactive
QFDFVLPVGYVFGDGYVLWV | inactive
QFLLGSWYRLLRSGTVNSPS | inactive
QFLLGWNPNTSDLVLTFVQQ | 1.15 ± 0.14
QFPSSQN | inactive
QFTHTNIFTND | inactive
QGGGNIDSSVVTDSSDVVYS | inactive
QGGGVCPCPKMVSFQMMYVI | inactive
QGNAVHRDASSGWMNSAFDR | inactive
QHSLGG | inactive

Substance | amyloid nucleation score
QIGFCS | inactive
QIIYISSLFTYDSYYKFRLH | inactive
QILVLHIR | 1.71 ± 0.079
QINMYMVNSRWVTFGIGMLS | 2.37 ± 0.055
QIVRLTSNIPRTAPSWSFH | inactive
QIVYSLILGDPPAASVWEKS | inactive
QKMFVQDLILVLPVISRLV | inactive
QLALPHKPHWGNWL | inactive
QLIWYTACKASIDVNRHGSG | inactive
QLKHWTEIKQVLVVSREWVH | -0.395 ± 1.3
QLLFPGLWESATRILCENFM | inactive
QLLHDGNLNVGIFMRYSQGR | 1.29 ± 0.093
QLLSLKWYYVTRILCARYAD | inactive
QLLSLVKISNKLTVI | inactive
QMVIHTVLGLKSLCVMFPSR | 1.04 ± 0.088
QNCVTDMSKNLGIVREFSCS | inactive
QNECLGHQNWLNVVLKVAMM | inactive
QNNTLGVSLVTFRGLVE | inactive
QPAFPWTYVFLLYHGW | inactive
QPVICNIRSSRCV | inactive
QPYIVFISGFVSSLWESVRK | inactive
